Measured values as given in US5770577.

These substances were tested against trkB.

Row | Activ. in vitro (MTS tetrazolium uptake by PC12/pcDneo-trkB#18 cells) | Substance
1 | 101% | monoMPEG(6 kDa)-BDNF conjugate with site of attachment at the N-terminal alpha-amino group(s) (Example 1) (ligand)
2 | 73% | monoMPEG(20 kDa)-BDNF conjugate with site of attachment at the N-terminal alpha-amino group(s) (Example 2) (ligand)
3 | 25% | polyMPEG(6 kDa)-BDNF conjugates with MPEG aldehydes, six-fold molar excess (Example 4) (ligand)
4 | 100% | r-metHuBDNF (ligand)
